T1: TNFR2 (TNFRSF1B/CD120b), yeast two-hybrid construct (mouse (clone from a murine embryonic …, UniProt P25119 23-258))
T1 construct: one molecule is used for all Y2H assays; also called cell surface TNFR2
T1 sequence (looked up): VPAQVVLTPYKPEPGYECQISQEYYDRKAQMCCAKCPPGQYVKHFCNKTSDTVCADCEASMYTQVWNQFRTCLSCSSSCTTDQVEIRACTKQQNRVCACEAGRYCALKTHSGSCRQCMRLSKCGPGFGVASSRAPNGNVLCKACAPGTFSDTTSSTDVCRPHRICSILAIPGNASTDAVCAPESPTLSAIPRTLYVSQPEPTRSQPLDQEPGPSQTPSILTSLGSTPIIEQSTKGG


Target: T1, TNFR2 (TNFRSF1B/CD120b), yeast …
Experiment: yeast two-hybrid, β-galactosidase assay
Experimental: Assay of protein-protein interactions using the Y2H system. Independent yeast colonies were analyzed for the interaction of two proteins, one of which was fused to the Ga14 DNA binding domain and the other, to the VP16 transactivation domain. Previously published procedures were followed for 1) growing and transforming the yeast strain MAV203 with the selected plasmids; and 2) determining β-galactosidase activity and growth phenotypes on selective media lacking tryptophan, leucine, histidine, and uracil.

| Binder | binding result |
| --- | --- |
| PGRN granulin unit C (yeast two-hybrid construct) (also called granulin C) VPCDNVSSCPSSDTCCQLTSGEWGCCPIPEAVCCSDHQHCCPQGYTCVAEGQCQ | no binding |
| EQGPHQVPWMEKAPAHLSLPDPQALKRDV [PGRN linker region P5 (yeast two-hybrid construct)] | no binding |
| PGRN granulin unit F (yeast two-hybrid construct) (also called granulin F) AIQCPDSQFECPDFSTCCVMVDGSWGCCPMPQASCCEDRVHCCPHGAFCDLVHTRCI | no binding |
| ITPTGTHPLAKKLPAQRTNRAVALSSS [PGRN linker region P3 (yeast two-hybrid construct)] | no binding |
| LSKENATTDLLTKLPAHTVGD [PGRN linker region P4 (yeast two-hybrid construct)] | no binding |
| PGRN granulin unit A (yeast two-hybrid construct) (also called granulin A) DVKCDMEVSCPDGYTCCRLQSGAWGCCPFTQAVCCEDHIHCCPAGFTCDTQKGTCE | no binding |
